According to patent US20180291081A1 (GUANGZHOU INSTITUTES OF BIOMEDICINE AND HEALTH CHINESE …, published 2018):
Residue numbers refer to the chain shown, from its start.

B1: high affinity PDL-1 molecule L1A4 (ligand)
chain: WTVTVPKDLYVVEYGSNMTIECKFPVEKQLDLAALQVFWMMEDKNIIQFVHGEEDLKVQHSSYRQRARLLKDQLSLGNAALQITDVKLQDAGVYTCLISYGGADYKRITVKVNAPYNKINQRILVVDPVTSEHELTCQAEGYPKAEVIWTSSDHQVLSGKTTTTNSKREEKLFNVTSTLRINTTTNEIFYCTFRRLDPEENHTAELVIPEL
B2: high affinity PDL-1 molecule L2G10 (ligand)
chain: B1 chain with W1F, F38H, M40F, I47Y, Q48S, T95R, L97M
B3: high affinity PDL-1 molecule L2B6 (ligand)
chain: B1 chain with W1F, Q36E, F38H, M40F, I47V, Q48S, T95R, L97M, L124R
B4: high affinity PDL-1 molecule L3B3a (ligand)
chain: B1 chain with W1F, I47V, Q48S, S99A, G101K
B5: high affinity PDL-1 molecule L3C7a (ligand)
chain: B1 chain with W1F, Q36E, F38H, M40F, I47F, Q48S, S99G, G101K
B6: high affinity PDL-1 molecule L2C4 (ligand)
chain: B1 chain with W1F, F38H, M40W, I47V, Q48S, T95R, L97M
B7: high affinity PDL-1 molecule L3C7 (ligand)
chain: B1 chain with W1F, Q36E, F38H, M40F, S99G, G101K
B8: high affinity PDL-1 molecule L2F4 (ligand)
chain: B1 chain with W1F, Q36E, F38H, M40F, I47F, Q48S, T95R, L97M
B9: high affinity PDL-1 molecule L3B3d (ligand)
chain: B1 chain with I47L, Q48S, T95V, S99A, G101K
B10: high affinity PDL-1 molecule L3B3b (ligand)
chain: B1 chain with W1F, I47V, Q48S, T95V, S99A, G101K
B11: high affinity PDL-1 molecule L2H3 (ligand)
chain: B1 chain with W1F, F38H, M40F, I47L, Q48S, T95R, L97M
B12: high affinity PDL-1 molecule L1F2 (ligand)
chain: B1 chain with W1F, F38N, M40L, T95L
B13: high affinity PDL-1 molecule L3B3 (ligand)
chain: B1 chain with W1F, S99A, G101K
B14: high affinity PDL-1 molecule L22D5 (ligand)
chain: B1 chain with W1F, F38H, M40F, I47F, Q48S, T95R, L97M
B15: high affinity PDL-1 molecule L2B8 (ligand)
chain: B1 chain with W1F, F38H, M40F, I47V, Q48S, T95R, L97M
B16: high affinity PDL-1 molecule L3D9 (ligand)
chain: B1 chain with W1F, Q36N, M40F, S99G, G101E
B17: high affinity PDL-1 molecule L22C7 (ligand)
chain: B1 chain with W1F, Q36E, F38H, M40F, Q48S, T95R, L97M
B18: high affinity PDL-1 molecule L22A5 (ligand)
chain: B1 chain with W1F, F38H, M40F, I47P, Q48S, T95R, L97M
B19: high affinity PDL-1 molecule L3C7c (ligand)
chain: B1 chain with Q36E, F38H, M40F, I47F, Q48S, S99G, G101K
B20: high affinity PDL-1 molecule L1C2 (ligand)
chain: B1 chain with W1F, F38N, M40F, T95V
B21: high affinity PDL-1 molecule L32G5 (ligand)
chain: B1 chain with W1F, Q36I, F38Y, M40E, S99G, G101H
B22: high affinity PDL-1 molecule L2D7 (ligand)
chain: B1 chain with W1F, Q36E, F38H, M40F, I47L, Q48S, T95R, L97M
B23: high affinity PDL-1 molecule L3C7b (ligand)
chain: B1 chain with W1F, Q36E, F38H, M40F, I47F, Q48S, T95V, S99G, G101K
B24: high affinity PDL-1 molecule L2F5 (ligand)
chain: B1 chain with W1F, Q36E, F38H, M40F, I47S, Q48S, T95R, L97M
B25: high affinity PDL-1 molecule L2A6 (ligand)
chain: B1 chain with W1F, F38H, M40F, I47A, Q48S, T95R, L97M, L124R
B26: high affinity PDL-1 molecule L3G10 (ligand)
chain: B1 chain with W1F, Q36T, F38A, M40Y, S99G, G101D
B27: high affinity PDL-1 molecule L3B3C (ligand)
chain: B1 chain with I47V, Q48S, T95V, S99A, G101K
B28: high affinity PDL-1 molecule L3C7d (ligand)
chain: WTVTVPKDLYVVEYGSNMTIECKFPVEKQLDLAALEVHWFMEDKNIFSFVHGEEDLKVQHSSYRQRARLLKDQLSLGNAALQITDVKLQDAGVYTCLIGYKGGADYKRITVKVNAPYNKINQRILVVDPVTSEHELTCQAEGYPKAEVIWTSSDHQVLSGKTTTTNSKREEKLFNVTSTLRINTTTNEIFYCTFRRLDPEENHTAELVIPEL

The binders below were run against T1, PD-1 molecule (refolded, purified and biotinylated PD-1 of Example 2) (UniProt Q15116 33-150, biotinylated with BirA enzyme (site not stated)) (assay: SPR (BIAcore T200), single-cycle kinetics; biotinylated PD-1 captured via streptavidin, PDL-1 variant in solution).
T1 construct: also called Programmed Death-1
T1 sequence (Q15116 33-150 limits assumed): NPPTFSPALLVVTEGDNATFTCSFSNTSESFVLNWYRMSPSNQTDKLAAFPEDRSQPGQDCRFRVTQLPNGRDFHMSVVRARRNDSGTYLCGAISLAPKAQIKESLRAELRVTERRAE
Description: The anti-streptavidin antibody (GenScript) was added to the coupling buffer (10 mM sodium acetate buffer, pH 4.77). The antibody was then flowed through a CMS chip previously activated with EDC and NHS to immobilize the antibody on the chip surface. Finally, the unreacted activation surface was blocked with a solution of ethanolamine hydrochloride to complete the coupling process.
A low concentration of streptavidin is allowed to flow over the surface of the antibody-coated chip, then the biotinylated PD-1 is passed through the detection channel and the other channel is used as a reference channel. Then, 0.05 mM biotin was passed through the chip at a flow rate of 10 μL/min for 2 min to block the remaining binding sites of streptavidin. The single-cycle kinetic analysis method was used to measure its affinity. […] The binding time for each injection was 120 s, and it was disassociated for 600 s after the last injection. The chips were regenerated with 10 mMGly-HCl, pH 1.75 after each round of assays. Kinetic parameters were calculated using BIAcore Evaluation software.

Row | Kd | koff | kon | Binder
1 | 0.914 µM | 0.0439 s⁻¹ | 48000 M⁻¹ s⁻¹ | B1
2 | 4.6 µM | 0.178 s⁻¹ | 38700 M⁻¹ s⁻¹ | B2
3 | 10.3 µM | 0.134 s⁻¹ | 13000 M⁻¹ s⁻¹ | B3
4 | 0.557 µM | 0.09 s⁻¹ | 162000 M⁻¹ s⁻¹ | B4
5 | 0.115 µM | 0.0139 s⁻¹ | 120000 M⁻¹ s⁻¹ | B5
6 | 11.2 µM | 0.124 s⁻¹ | 11000 M⁻¹ s⁻¹ | B6
7 | 0.75 µM | 0.0329 s⁻¹ | 43900 M⁻¹ s⁻¹ | B7
8 | 7.54 µM | 0.154 s⁻¹ | 20500 M⁻¹ s⁻¹ | B8
9 | 0.964 µM | 0.0526 s⁻¹ | 54500 M⁻¹ s⁻¹ | B9
10 | 0.666 µM | 0.0573 s⁻¹ | 86000 M⁻¹ s⁻¹ | B10
11 | 8.97 µM | 0.153 s⁻¹ | 17100 M⁻¹ s⁻¹ | B11
12 | 3.44 µM | 0.104 s⁻¹ | 30200 M⁻¹ s⁻¹ | B12
13 | 0.499 µM | 0.071 s⁻¹ | 142000 M⁻¹ s⁻¹ | B13
14 | 6.48 µM | 0.268 s⁻¹ | 41400 M⁻¹ s⁻¹ | B14
15 | 11.7 µM | 0.15 s⁻¹ | 12800 M⁻¹ s⁻¹ | B15
16 | 3.39 µM | 0.0871 s⁻¹ | 25700 M⁻¹ s⁻¹ | B16
17 | 11.9 µM | 0.133 s⁻¹ | 11200 M⁻¹ s⁻¹ | B17
18 | 4.84 µM | 0.0559 s⁻¹ | 11500 M⁻¹ s⁻¹ | B18
19 | 0.106 µM | 0.0155 s⁻¹ | 147000 M⁻¹ s⁻¹ | B19
20 | 0.751 µM | 0.0376 s⁻¹ | 50100 M⁻¹ s⁻¹ | B20
21 | 2.98 µM | 0.169 s⁻¹ | 56600 M⁻¹ s⁻¹ | B21
22 | 10.9 µM | 0.123 s⁻¹ | 11300 M⁻¹ s⁻¹ | B22
23 | 0.123 µM | 0.0176 s⁻¹ | 143000 M⁻¹ s⁻¹ | B23
24 | 10.1 µM | 0.122 s⁻¹ | 12200 M⁻¹ s⁻¹ | B24
25 | 4.74 µM | 0.0458 s⁻¹ | 9670 M⁻¹ s⁻¹ | B25
26 | 11.8 µM | 0.263 s⁻¹ | 22200 M⁻¹ s⁻¹ | B26
27 | 0.648 µM | 0.044 s⁻¹ | 67800 M⁻¹ s⁻¹ | B27
28 | 0.0539 µM | 0.0059 s⁻¹ | 109000 M⁻¹ s⁻¹ | B28
